Test results as given in US20160208003A1 (AFFITECH RESEARCH, published 2016).
Substitutions are numbered along the chain they refer to. Read-outs that look alike come from different tables or passages of the source.

Assays:
[1] = target: T1, human CC chemokine receptor 4 (CCR4) (human, UniProt P51679 1-360); assay: flow cytometry, saturation titration of scFv cross-linked via myc-tag on DT-40 CCR4+ cells; one site-specific binding fit
T1 construct: whole, on cells; Always presented on cells; also called CD194; human CCR4
T1 sequence (looked up): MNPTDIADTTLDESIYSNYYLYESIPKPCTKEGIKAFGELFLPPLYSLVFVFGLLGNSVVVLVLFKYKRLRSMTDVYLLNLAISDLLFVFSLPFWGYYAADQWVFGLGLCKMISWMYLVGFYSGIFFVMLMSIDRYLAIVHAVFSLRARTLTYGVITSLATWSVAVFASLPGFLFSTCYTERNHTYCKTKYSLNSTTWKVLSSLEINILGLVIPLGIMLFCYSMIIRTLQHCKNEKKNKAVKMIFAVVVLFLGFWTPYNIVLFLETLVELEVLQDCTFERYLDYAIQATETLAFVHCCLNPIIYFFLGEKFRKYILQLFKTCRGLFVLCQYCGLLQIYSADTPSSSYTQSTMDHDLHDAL
Method: DT 40 and CCRF-CEM cells were cultured as described in Example 2. The DT40 CCR4+ and DT40 (CCR4−) cells were harvested from culture flasks, washed 2 times with PBS (400×g, 5 min, 4° C.) and resuspended in PBS containing 0.2% BSA and 0.09% NaN₃. 1×10⁵ cells per well were aliquoted into V-shaped 96-well plates (Greiner Bio-One, Frikenhausen, Germany). […] […] Cells were washed, resuspended in 200 μl PBS with 0.2% BSA and 0.09% NaN₃, and transferred to a U-shaped 96 well Costar (Corning, Schiphol-Rijik, The Netherlands) plate for flow cytometry using an Easy Cyte device (Guava Technologies, Hayward, Calif., USA).

[2] = target: T1, human CC chemokine receptor 4 (CCR4); assay: competition flow cytometry on CCRF-CEM cells: unlabelled competitor against ca. 20 nM biotinylated MDC, streptavidin-PE [d]
Method: The competition binding assays were performed with biotinylated MDC or biotinylated TARC on DT-40-CCR4+ and CCRF-CEM cells. DT40 and CCRF-CEM cells were cultured as described in Example 2. TARC and MDC were biotinylated using standard procedures. The biotinylation process causes some losses, so the concentrations of biotinylated MDC and TARC recited herein are approximate.
The cells were harvested from culture flasks, washed 2 times with PBS (400×g, 5 min, 4° C.) and resuspended in PBS containing 0.2% BSA and 0.09% NaN3. 1×10^5 cells per well were aliquoted into V-shaped 96-well plates (Greiner Bio-One, Frikenhausen, Germany). Cells were centrifuged (400×g, 5 min, 4° C.) and resuspended in 50 μl IgG, single chain or unlabeled ligand (1:10 dilution series starting on 100/500/26, 4 μg/ml) mixed with a fixed concentration of biotinylated ligand (10 or 20 nM, see legend to FIG. 24). The cells were incubated for 2 hours at 4° C. and mixed with a pipette every 45 min. The cells were washed three times with 150 μl PBS with 0.2% BSA and 0.09% NaN3 and stained with 3 μg/ml streptavidin PE (BD Biosciences) for 45 minutes at 4° C. […] Apparent binding affinities (KD) were calculated according to the following equation derived from previously described methods (Kipriyanov et al, 1997b; Schodin & Kranz, 1993): […]

[3] = target: T1, human CC chemokine receptor 4 (CCR4); assay: cell-based or functional assay
[4] = target: T1, human CC chemokine receptor 4 (CCR4); assay: flow cytometry, IgG titration on CCR4+ DT40 cells (2); one site-specific binding fit (Prism); IgG titration on CCR4+ DT40 cells, second experiment, DT40 (2)
Method: (§1) The IgG forms of antibodies 17G, 9E and KM3060var using various CCR4⁺ cell types were used (see Example 2).
(§2) For the flow cytometry experiments, the cells were harvested from the culture flasks, washed 2 times with PBS, re-suspended in PBS with 0.2% BSA and 0.09% NaN₃ and finally aliquoted 1×10⁵ cells per well into V-shaped 96-well plates (Greiner Bio-One, Frickenhausen, Germany). Cells were centrifuged at 400×g for 5 min and then incubated at 4° C. for 45 min with different antibody dilutions.
(§3) After washing with PBS with 0.2% BSA and 0.09% NaN₃, the cells were stained with 10 μg/ml of RPE-conjugated goat anti-human IgG (AbDSerotec, Düsseldorf, Germany) for 30 minutes at 4° C. The stained cells were washed, re-suspended in 200 μl PBS with 0.2% BSA and 0.09% NaN₃ and transferred to a U-shaped 96-well plate (Corning, Schiphol-Rijk, The Netherlands) for acquisition on EasyCyte flow cytometer (Guava Technologies, Hayward, Calif., USA).

[5] = target: T1, human CC chemokine receptor 4 (CCR4); assay: flow cytometry, IgG titration on CCR4+ DT40 cells; one site-specific binding fit (Prism); IgG titration on CCR4+ DT40 cells
Method: as §1, §2, §3

[6] = target: T1, human CC chemokine receptor 4 (CCR4); assay: competition flow cytometry on CCR4-transfected DT40 cells: unlabelled IgG against 6.8 nM biotinylated KM3060var IgG, streptavidin-RPE
Method: To analyze the epitope binding of anti-CCR4 antibodies 17G, 9E and KM3060var, competition experiments were performed using flow cytometry. The binding of biotinylated antibodies to CCR4 transfected DT40-cells was challenged in the presence of different concentrations of non-biotinylated anti-CCR4 antibodies. The CCR4⁺ DT40 cells were harvested from culture flasks, washed 2 times with PBS, re-suspended in PBS with 0.2% BSA and 0.09% NaN₃ and finally aliquoted 1×10⁵ cells per well into V-shaped 96-well plates (Greiner Bio-One, Frickenhausen, Germany). Cells were centrifuged at 400×g for 5 min and then incubated at 4° C. for 3-4 hours with fixed amounts of biotinylated IgG and different concentrations of non-biotinylated antibodies. After washing with PBS with 0.2% BSA and 0.09% NaN₃, the cells were stained with 2.5 μg/ml of Streptavidin—RPE (BD Pharmingen, San Diego, Calif., USA) for 30 minutes at 4° C. The stained cells were washed, re-suspended in 250 μl PBS with 0.2% BSA and 0.09% NaN₃ and transferred to a U-shaped 96-well plate (Corning, Schiphol-Rijk, The Netherlands) for acquisition on EasyCyte flow cytometer (Guava Technologies, Hayward, Calif., USA). The results shown in FIGS. 10 A, B and C illustrate that the 17G and 9E antibodies have epitopes that are identical or at least overlapping.

[7] = target: T1, human CC chemokine receptor 4 (CCR4); assay: cell-based or functional assay; remark: listed apart in the source
[8] = target: T1, human CC chemokine receptor 4 (CCR4); assay: flow cytometry, IgG titration on CCRF-CEM cells; one site-specific binding fit (Prism); IgG titration on CCRF-CEM cells (natural CCR4+ line)
Method: as §1, §2, §3

[9] = target: T1, human CC chemokine receptor 4 (CCR4); assay: flow cytometry, IgG titration on CCR4+ HEK293T cells; one site-specific binding fit (Prism); IgG titration on CCR4+ HEK293T cells
Method: as §1, §2, §3

[10] = target: T1, human CC chemokine receptor 4 (CCR4); assay: cell-based or functional assay; remark: listed apart in the source
[11] = target: T1, human CC chemokine receptor 4 (CCR4); assay: flow cytometry, IgG titration on DT-40 CCR4+ cells, anti-human-FITC, MFI [a]
Method: The quality of the specific binding to DT40+ cells was tested for 9E1 D and 9E10J in scFv or IgG format in a titration experiment.
Alternatively, 9E1D and 9E10J were converted into the full-length human IgG1 and tested for cell binding. The DT40+CCR4 and DT40 cells were harvested from culture flasks, washed 2 times with PBS (400×g, 5 min, 4° C.) and resuspended in PBS containing 0.2% BSA and 0.09% NaN₃. 1×10⁵ cells per well were aliquoted into V-shaped 96-well plates (Greiner Bio-One, Frikenhausen, Germany). Cells were centrifuged (400×g, 5 min, 4° C.) and resuspended in a 1:5 dilution series of IgG starting on 10 μg/ml (50 μl/well). After 1 hour incubation at 4° C., the cells were washed three times with 150 μl PBS with 0.2% BSA and 0.09% NaN₃ and stained with 2.5 μg/ml RPE conjugated goat anti-human IgG (AbDSerotec, Düsseldorf, Germany) or 2.5 μg/ml anti human IgG Fc (goat polyclonal aff. pur) FITC (Sigma Aldrich) for 45 minutes at 4° C. Cells were washed, resuspended in 200 μl PBS with 0.2% BSA and 0.09% NaN₃, and transferred to a U-shaped 96 well Costar (Corning, Schiphol-Rijik, The Netherlands) plate for flow cytometry using an Easy Cyte device (Guava Technologies, Hayward, Calif., USA) or FACS Canto II flow cytometer (BD Biosciences, Heidelberg, Germany).

[12] = target: T1, human CC chemokine receptor 4 (CCR4); assay: IgG1 expressed from pLNO, purified; method not told there

B1: 9E scFv (scFv)
scFv: QVQLVQSGAEVKKPGSSVKVSCKASGGTFSNYAISWVRQAPGQGLEWMGGIIPIFGTANYAQKFQGRVTITADESTSTAYMELSSLRSEDTAVYYCARRGGSYFDYWGQGTLVTVSSKLSGSASAPKLEEGEFSEARVSYVLTQPPSASGTPGQSVTISCSGSTSNIGSHYVFWYQQLPGTAPRLLIYRNHQRPSGVPDRLSGSKSGTSASLAISGLRSEDEADYYCAVWDDTLSGWVFGGGTKLTVLAAAGSEQKLISEEDLNSHHHHHH
notes: For staining the scFv was pre-incubated with an anti-c-myc antibody with human Fc (cross-linked, dimer-like); also called scFv 9E
Work on B1 yielded a Kd [1] of 4.95 nM.

B2: 9E10J scFv (scFv)
scFv: B1 scFv with N31S, I70M, A72R, E74T, A79V
notes: also called scFv 9E10J
B2 was tested, and the Kd [1] was 1.17 nM and the “IC50 (read off the curve)” value [2] was about 200 nM.

B3: 9E1D scFv (scFv)
scFv: QVQLVQSGAEVKKPGSSVKVSCKASGGTFSNYAISWVRQAPGQGLEWMGGIIPIFGTANYAQKFQGRVTITADESTSTAYMELSSLRSEDTAVYYCARRGGSYFDYWGQGTLVTVSSKLSGSASAPKLEEGEFSEARVQPVLTQPPSASGTPGQRVTISCSGGGSNIGRRFVNWYQQLPGTAPKLLIYRNNQRPSGVPDRFSGSKSGTSASLVISGLRSEDEADYYCAAWDDSLSGWVFGGGTKLTVLAAAGSEQKLISEEDLNSHHHHHH
notes: also called scFv 9E1D
For B3, the Kd [1] was 5.22 nM.

B4: KM3060var IgG (antibody, V domains shown)
VH: EVQLVESGGDLMKPGGSLKISCAASGFIFSNYGMSWVRQTPDMRLEWVATISSASTYSYYPDSVKGRFTISRDNAENSLYLQMNSLRSEDTGIYYCGRHSDGNFAFGYWGRGTLVTVSS
VL: DVLMTQTPLSLPVSLGDQASISCRSSRNIVHINGDTYLEWYLQRPGQSPKLLIYKVSNRFSGVPDRFSGSGSGTDFTLKISRVEAEDLGVYYCFQGSLLPWTFGGGTRLEIK
notes: Corresponds to KM3060 expressed in a different host; also called comparator KM3060var
With B4 the “ADCC of CCRF-CEM cells, EC50 (mean, N=3)” value [3] was 0.405 µg/mL, the Kd [4] was 4.82 nM and the Kd [5] was 3.67 nM. For the same binder, the “IC50 (read off the curve)” value [6] was about 6 nM, the “Ca++ flux in CCRF-CEM cells: signal response to MDC stimulation (% of MDC in the absence of IgGs), IgG 10 µg/mL” value [7] was 92% and the “Ca++ flux in CCRF-CEM cells: signal response to TARC stimulation (% of TARC alone), IgG 10 µg/mL” value [7] was 104%. For the same binder, the Kd [8] was 79.8 nM, the Kd [9] was 11.4 nM and the “ADCC of CCRF-CEM cells, EC50 (mean, N=3)” value [10] was 0.367 µg/mL.

B5: defucosylated 9E10J IgG (antibody, V domains shown)
VH: QVQLVQSGAEVKKPGSSVKVSCKASGGTFSSYAISWVRQAPGQGLEWMGGIIPIFGTANYAQKFQGRVTMTRDTSTSTVYMELSSLRSEDTAVYYCARRGGSYFDYWGQGTLVTVSS
VL: SYVLTQPPSASGTPGQSVTISCSGSTSNIGSHYVFWYQQLPGTAPRLLIYRNHQRPSGVPDRLSGSKSGTSASLAISGLRSEDEADYYCAVWDDTLSGWVFGGGTKLTVLG
modifications: Fc glycans defucosylated (IgG produced in the presence of Kifunensine, 100 ng/ml)
For B5, the “ADCC of CCRF-CEM cells, EC50 (mean, N=4)” value [3] was 0.0021 µg/mL.

B6: 9E1D IgG (full length human IgG1, lambda) (antibody, V domains shown)
VH: B5 VH with S31N, M70I, R72A, T74E, V79A
VL: QPVLTQPPSASGTPGQRVTISCSGGGSNIGRRFVNWYQQLPGTAPKLLIYRNNQRPSGVPDRFSGSKSGTSASLVISGLRSEDEADYYCAAWDDSLSGWVFGGGTKLTVLG
B6: binds [11].

B7: 11F IgG (full length human IgG1, kappa) (antibody, V domains shown)
VH: not shown
VL: ETTLTQSPGTLSLSPGEGVTLSCRASQSVNRRYLAWYQQKPGQAPRLLIYGASSRATGIPDRFSGSGSGTDFTLTISRLEPEDFAVYYCQQYGSSPLTFGGGTKVEIKR
B7: binds [12].
